{"source": "paper PMC3503981", "target": "PfUDN, N-terminal fragment of Plasmodium falciparum UvrD helicase (P. falciparum 3D7)", "data": [{"substance": "PfMLH (P. falciparum MutL homologue) (natural protein)", "values": [{"measurement": "stimulation of the unwinding (helicase) activity of PfUDN (10 nM) on the 3′ to 5′ direction-specific substrate 3B by PfMLH (8 and 16 nM) pre-incubated with the substrate, against PfUDN alone", "result": "22 to 36", "unit": "%"}]}]}
